The results in this text go back to publication PMC6827302 (2019).

The assay addresses unlabeled F-actin from rabbit skeletal muscle (rabbit, UniProt P68135 1-377).

B1: human cMyBP-C N-terminal domains C0–C1 (domain or fragment)
chain: MPEPGKKPVSAFSKKPRSVEVAAGSPAVFEAETERAGVKVRWQRGGSDISASNKYGLATEGTRHTLTVREVGPADQGSYAVIAGSSKVKFDLKVIEAEKAEPMLAPAPAPAEATGAPGEAPAPAAELGESAPSPKGSSSAALNGPTPGAPDDPIGLFVMRPQDGEVTVGGSITFSARVAGASLLKPPVVKWFKGKWVDLSSKVGQHLQLHDSYDRASKVYLFELHITDAQPAFTGSYRCEVSTKDKFDCSNFNLTV
In the case of B1, binding was characterised by a dissociation constant (Kd) of 32 µM.

B2: human cMyBP-C C0–C2 3SD (S275D, S284D, S304D) (domain or fragment)
chain: MPEPGKKPVSAFSKKPRSVEVAAGSPAVFEAETERAGVKVRWQRGGSDISASNKYGLATEGTRHTLTVREVGPADQGSYAVIAGSSKVKFDLKVIEAEKAEPMLAPAPAPAEATGAPGEAPAPAAELGESAPSPKGSSSAALNGPTPGAPDDPIGLFVMRPQDGEVTVGGSITFSARVAGASLLKPPVVKWFKGKWVDLSSKVGQHLQLHDSYDRASKVYLFELHITDAQPAFTGSYRCEVSTKDKFDCSNFNLTVHEAMGTGDLDLLSAFRRTDLAGGGRRIDDSHEDTGILDFSSLLKKRDDFRTPRDSKLEAPAEEDVWEILRQAPPSEYERIAFQYGVTDLRGMLKRLKGMRRDEKKSTAFQKKLEPAYQVSKGHKIRLTVELADHDAEVKWLKNGQEIQMSGSKYIFESIGAKRTLTISQCSLADDAAYQCVVGGEKCSTELFVKEPPVLITRPLEDQLVMVGQRVEFECEVSEEGAQVKWLKDGVELTREETFKYRFKKDGQRHHLIINEAMLEDAGHYALCTSGGQALAELIVQEKKLEVYQSIADLMVGAKDQAVFKCEVSDENVRGVWLKNGKELVPDSRIKVSHIGRVHKLTIDDVTPADEADYSFVPEGFACNLSAKLHFMEVKIDFVPRQEPPKIHLDCPGRIPDTIVVVAGNKLRLDVPISGDPAPTVIWQKAITQGNKAPARPAPDAPEDTGDSDEWVFDKKLLCETEGRVRVETTKDRSIFTVEGAEKEDEGVYTVTVKNPVGEDQVNLTVKVIDVPDAPAAPKISNVGEDSCTVQWEPPAYDGGQPILGYILERKKKKSYRWMRLNFDLIQELSHEARRMIEGVVYEMRVYAVNAIGMSRPSPASQPFMPIGPPSEPTHLAVEDVSDTTVSLKWRPPERVGAGGLDGYSVEYCPEGCSEWVAALQGLTEHTSILVKDLPTGARLLFRVRAHNMAGPGAPVTTTEPVTVQEILQRPRLQLPRHLRQTIQKKVGEPVNLLIPFQGKPRPQVTWTKEGQPLAGEEVSIRNSPTDTILFIRAARRVHSGTYQVTVRIENMEDKATLVLQVVDKPSPPQDLRVTDAWGLNVALEWKPPQDVGNTELWGYTVQKADKKTMEWFTVLEHYRRTHCVVPELIIGNGYYFRVFSQNMVGFSDRAATTKEPVFIPRPGITYEPPNYKALDFSEAPSFTQPLVNRSVIAGYTAMLCCAVRGSPKPKISWFKNGLDLGEDARFRMFSKQGVLTLEIRKPCPFDGGIYVCRATNLQGEARCECRLEVRVPQ
Regarding B2, the dissociation constant Kd (in general, the equilibrium constant for the complex coming apart) is 7 µM.
